# Assay results: US20060160174A1, “Modified l49-sfv exhibiting increased stability and methods of use thereof” (priority 2002, published 2006)
# Substitutions are numbered along the chain they refer to. In names and notes the source's numbering stands.
# B1: FP965: L49-sFv-bL double mutant K H39 Q, N H91 Y (protein)
# scFv: MEVQLQESGPSLVKPSQTLSLTCSVTGDSITSGYWNWIRQFPGNKLEYMGYISDSGITYYNPSLKSRISITRDTSKNQYYLQLNFVTAEDTATYYCARRTLATYYAMDYWGQGTSVTVSSGSTSGSGKPGSGEGSTKGDFVMTQTPLSLPVSLGDQASISCRASQSLVHSNGNTYLHWYLQKPGQSPKLLIYRVSNRFSGVPDRFSGSGSGTDFTLKISRVEAEDLGVYFCSQSTHVPPTFGGGTKLEIKRTPVSEKQLAEVVANTITPLMKAQSVPGMAVAVIYQGKPHYYTFGKADIAANKPVTPQTLFELGSISKTFTGVLGGDAIARGEISLDDAVTRYWPQLTGKQWQGIRMLDLATYTAGGLPLQVPDEVTDNASLLRFYQNWQPQWKPGTTRLYANASIGLFGALAVKPSGMPYEQAMTTRVLKPLKLDHTWINVPKAEEAHYAWGYRDGKAVRVSPGMLDAQAYGVKTNVQDMANWVMANMAPENVADASLKQGIALAQSRYWRIGSMYQGLGWEMLNWPVEANTVVETSFGNVALAPLPVAEVNPPAPPVKASWVHKTGSTGGFGSYVAFIPEKQIGIVMLANTSYPNPARVEAAYHILEALQ
# B2: FP990: L49-sFv-bL triple mutant K H39 Q, F H82B S, N H91 Y (protein)
# scFv: B1 scFv with F85S
# B3: FP95: parental (wt) L49-sFv-bL fusion protein refolded from E. coli inclusion bodies (protein)
# scFv: B1 scFv with Q40K, Y95N
# B4: FP960: L49-sFv-bL double mutant F H82B S, N H91 Y (protein)
# scFv: B1 scFv with Q40K, F85S
# B5: FP999: triple mutant K H39 Q, F H82B S, N H91 Y in reverse bL-L49-sFv orientation (β-lactamase at amino terminus) (protein)
# chain: TPVSEKQLAEVVANTITPLMKAQSVPGMAVAVIYQGKPHYYTFGKADIAANKPVTPQTLFELGSISKTFTGVLGGDAIARGEISLDDAVTRYWPQLTGKQWQGIRMLDLATYTAGGLPLQVPDEVTDNASLLRFYQNWQPQWKPGTTRLYANASIGLFGALAVKPSGMPYEQAMTTRVLKPLKLDHTWINVPKAEEAHYAWGYRDGKAVRVSPGMLDAQAYGVKTNVQDMANWVMANMAPENVADASLKQGIALAQSRYWRIGSMYQGLGWEMLNWPVEANTVVETSFGNVALAPLPVAEVNPPAPPVKASWVHKTGSTGGFGSYVAFIPEKQIGIVMLANTSYPNPARVEAAYHILEALQMHGTKLMEVQLQESGPSLVKPSQTLSLTCSVTGDSITSGYWNWIRQFPGNKLEYMGYISDSGITYYNPSLKSRISITRDTSKNQYYLQLNSVTAEDTATYYCARRTLATYYAMDYWGQGTSVTVSSGSTSGSGKPGSGEGSTKGDFVMTQTPLSLPVSLGDQASISCRASQSLVHSNGNTYLHWYLQKPGQSPKLLIYRVSNRFSGVPDRFSGSGSGTDFTLKISRVEAEDLGVYFCSQSTHVPPTFGGGTKLEIKR
# B6: FP930: L49-sFv-bL with mutation K H39 Q (protein)
# scFv: B1 scFv with Y95N
# B7: FP950: L49-sFv-bL with mutation N H91 Y (protein)
# scFv: B1 scFv with Q40K
# B8: FP945: L49-sFv-bL with mutation F H82B S (protein)
# scFv: B1 scFv with Q40K, F85S, Y95N
# Target: T1, Recombinant p97 (Homo sapiens, UniProt P08582)
# T1 construct: Soluble p97 (amino acids 20-710 of human p97 precursor); 6xHis; made in house
# T1 sequence (P08582 20-710): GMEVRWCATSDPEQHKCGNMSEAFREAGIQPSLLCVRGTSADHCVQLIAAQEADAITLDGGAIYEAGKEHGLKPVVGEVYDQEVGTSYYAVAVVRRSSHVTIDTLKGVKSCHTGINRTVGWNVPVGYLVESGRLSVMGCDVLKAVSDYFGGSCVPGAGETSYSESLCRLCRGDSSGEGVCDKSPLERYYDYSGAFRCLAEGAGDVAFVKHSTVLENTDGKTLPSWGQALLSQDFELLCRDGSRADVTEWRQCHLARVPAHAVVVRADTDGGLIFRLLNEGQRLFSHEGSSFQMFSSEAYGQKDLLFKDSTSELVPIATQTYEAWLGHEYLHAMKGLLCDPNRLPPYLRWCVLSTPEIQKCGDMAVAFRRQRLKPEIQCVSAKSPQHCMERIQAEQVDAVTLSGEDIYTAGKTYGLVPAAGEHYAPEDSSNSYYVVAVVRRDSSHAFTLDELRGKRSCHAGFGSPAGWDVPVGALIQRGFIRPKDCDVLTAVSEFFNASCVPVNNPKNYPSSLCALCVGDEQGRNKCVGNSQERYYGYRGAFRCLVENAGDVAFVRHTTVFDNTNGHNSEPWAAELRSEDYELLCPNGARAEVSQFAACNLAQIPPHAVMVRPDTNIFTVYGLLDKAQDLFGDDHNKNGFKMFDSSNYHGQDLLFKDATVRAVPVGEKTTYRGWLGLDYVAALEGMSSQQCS
# Experiment: binding affinity by surface plasmon resonance (Biacore 2000)
# Conditions: 25° C., immobilized p97, 1:1 model, error in last digit in parentheses
# Experimental: The buffer used in the study was PBS, 0.005% P20, 0.2 mg/mi BSA. Antigen was immobilized on one flow cell surface of a CM5 sensor chip and the others were left blank to serve as reference surfaces. For each scFv, triplicates of 0, 0.5, 2.8, 8.3, 25, 75 and 225 nM were injected across the immobilized antigen. The association and dissociation phases were monitored for 1 and 20 minutes, respectively. The antigen surface was regenerated with four 18-second pulses of 2.5 mM NaOH between injections.
# The binding affinities of double mutants FP960 and FP965 and triple mutants FP990 and FP999 were compared to the parental molecule by surface plasmon resonance. Recombinant p97 was immobilized on a BIACore CM5 sensor chip and varying concentrations of each scFv fusion protein were injected across the chip in triplicate.
Molecule,ka,kd
B1,4.000(6) × 10^5 M^−1 s^−1,7.65(1) × 10^−4 s^−1
B2,4.476(1) × 10^5 M^−1 s^−1,7.819(3) × 10^−4 s^−1
B3,3.038(2) × 10^5 M^−1 s^−1,7.004(5) × 10^−4 s^−1
B4,3.640(4) × 10^5 M^−1 s^−1,6.383(7) × 10^−4 s^−1
B5,3.373(3) × 10^5 M^−1 s^−1,5.755(7) × 10^−4 s^−1

# Tested on: H3677 human melanoma xenografts
# Experiment: not given
# Conditions: fusion protein 1 mg/kg i.v. followed 24 h later by C-Mel 100 mg/kg, q7dx3
row,Molecule,tumor response
1,B2,significant tumor regression
2,B5,significant tumor regression

# Target: T2, purified p97 antigen (Homo sapiens, UniProt P08582)
# T2 construct: Soluble p97 (amino acids 20-710 of human p97 precursor); 6xHis; made in house
# T2 sequence (P08582 20-710): T1 sequence (P08582 20-710)
# Experiment: size exclusion chromatography (SEC) binding assay, 2:1 p97 antigen to L49-sFv-bL
# Conditions: purified protein after ion exchange
# Excerpt: Double mutants FP960 and FP965 and triple mutant FP990 all show improved refolding activity in crude lysates compared to the parental molecule, and therefore, all three mutant molecules were selected for further analysis. Proteins were expressed at the 1L scale in shake flasks as described in Materials and Methods, supra. Inclusion bodies (IBs) were obtained at a typical yield of 25% (±10%) wet IB mass/wet cell mass. Renatured L49-sFv-bL was purified by aminophenylboronate chromatography, dialyzed into 10 mM Na2PO4 and loaded onto Macro-prep HS resin. Fusion proteins were eluted in a stepwise fashion employing 250 mM NaCl. […] Mutants FP965 and FP990 were greater than 95% monomeric as shown by SEC-HPLC. However, FP960 contained only 55% monomer after cation exchange purification, possibly indicating a key role for the lysine residue at position H39 in refolding. The parental molecule, FP95, was present as 2 bands following aminophenylboronate chromatography. After ion-exchange chromatography only the upper of these 2 bands was eluted. A size exclusion chromatography (SEC) binding assay was developed in which a 2:1 ratio of purified p97 antigen to purified L49-sFv-bL was mixed and analyzed by HPLC-SEC (data not shown).
row,Molecule,antigen binding in SEC assay
1,B3,bound antigen completely
2,B5,bound completely to antigen

# Target: T3, soluble p97 (amino acids 20-710 of human p97 precursor) (Homo sapiens, UniProt P08582)
# T3 construct: Soluble p97 (amino acids 20-710 of human p97 precursor); 6xHis; made in house
# T3 sequence (P08582 20-710): T1 sequence (P08582 20-710)
# Experiment: solid-phase p97 binding assay of crude refolded fusion proteins (refolding efficiency)
# Conditions: crude refolds normalized on β-lactamase activity
# Experimental: For small scale expression BL21([DE3) (Novagen) were transformed with parental and mutant constructs and single colonies was used to inoculate 100 ml Terrific Broth II (TB) (QBIOGENE). Cells were induced at an OD of 1.0 with 1 mM IPTG (Sigma). Cells were harvested following overnight incubation and inclusion bodies were purified from the cell extracts using B-Per (Novagen) according to the manufacturers instructions. Inclusion body pellets were resuspended in 8 M urea, 2 mM DTT, 50 mM Tris.Cl pH 8.0 at a concentration of 50 mg/ml. Inclusion bodies were refolded overnight in a 50-fold dilution of 2 M urea, 0.3 M L-arginine, 50 mM Tris.Cl pH 8.0, 1 mM reduced glutathione, 0.1 mM oxidized glutathione. Protein was then dialyzed into PBS and fusion protein concentration was determined by measuring β-lactamase activity using colorimetric substrate nitrocefin.
# Soluble p97 (amino acids 20-710 of human p97 precursor) was cloned into pSecTag2 (Invitrogen), incorporating an Ig Kappa leader sequence and a 6× his tag, and transfected into CHO cells. Stable transformants were selected and secreted protein was purified from conditioned medium on a metal chelate affinity column. Assays were performed by coating polystyrene 96-well plates with 2 μg/ml soluble p97 in PBS overnight. The plates were blocked by adding 1% bovine serum albumin in PBS for 1 hour at room temperature. Plates were emptied and fresh blocking reagent containing serial dilutions of L49-sFv-bL samples was added. Following 1 hour at room temperature the plates were washed and developed with 0.1 ml of colorimetric β-lactamase substrate nitrocefin solution at 0.1 mM in PBS containing 1% DMSO. Absorbance measurements were read in an ELISA plate reader using a 490 nm filter with 610 m as the reference wavelength.
# The unusual residues in the L49 scFv framework were mutated to the most frequently occurring residue for that position in the Kabat database (Chowdhury et al., 1998, J. Mol. Biol. 281, 917-928). […] Binding to p97 was then determined using a solid-phase binding assay as described in Section 6.1.3, supra.
row,Molecule,antigen binding of refolded mutant compared to parental L49-sFv-bL (FP95)
1,B6,significant increases in antigen binding
2,B7,significant increases in antigen binding
3,B8,significant increases in antigen binding
